# Source: publication doi:10.1101/2022.07.04.498665 (bioRxiv, 2022)
# Values joined by “and” are separate entries in the source; they are usually repeats but may differ in a detail not shown here. Identical values can stand only once.
# B1: Mu8.1 (natural protein)
# chain: GENSDNLTHCRLFEFRLCLLECMSLTLDHCYARCTTVITQIHGSDTNRFDCTIFKTCYYRCYVLGKTEDHCWKGTATSVTGDVGDLEFC
# What was measured:
# [1] = target: the molecule itself; assay: SEC
# [2] = target: the molecule itself; assay: SAXS
protein,measurement,setting,value
B1,stoichiometry N,[1],2
same,stoichiometry N,[2],4 and 6
